# B1: Caspase recruitment domain-containing protein 9 (Homo sapiens), Q9H257 (parent)
# chain: MSDYENDDECWSVLEGFRVTLTSVIDPSRITPYLRQCKVLNPDDEEQVLSDPNLVIRKRKVGVLLDILQRTGHKGYVAFLESLELYYPQLYKKVTGKEPARVFSMIIDASGESGLTQLLMTEVMKLQKKVQDLTALLSSKDDFIKELRVKDSLLRKHQERVQRLKEECEAGSRELKRCKEENYDLAMRLAHQSEEKGAALMRNRDLQLEIDQLKHSLMKAEDDCKVERKHTLKLRHAMEQRPSQELLWELQQEKALLQARVQELEASVQEGKLDRSSPYIQVLEEDWRQALRDHQEQANTIFSLRKDLRQGEARRLRCMEEKEMFELQCLALRKDSKMYKDRIEAILLQMEEVAIERDQAIATREELHAQHARGLQEKDALRKQVRELGEKADELQLQVFQCEAQLLAVEGRLRRQQLETLVLSSDLEDGSPRRSQELSLPQDLEDTQLSDKGCLAGGGSPKQPFAALHQEQVLRNPHDAGLSSGEPPEKERRRLKESFENYRRKRALRKMQKGWRQGEEDRENTTGSDNTDTEGS
# partner: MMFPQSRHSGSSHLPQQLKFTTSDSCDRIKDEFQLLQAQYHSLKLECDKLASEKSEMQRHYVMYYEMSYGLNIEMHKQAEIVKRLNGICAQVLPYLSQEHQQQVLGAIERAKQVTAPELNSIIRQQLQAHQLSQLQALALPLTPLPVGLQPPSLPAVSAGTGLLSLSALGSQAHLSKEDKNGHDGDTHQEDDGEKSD
# B2: Isoform 1 of Myotubularin-related protein 9 (Homo sapiens), Q96QG7-1 (parent)
# chain: MEFAELIKTPRVDNVVLHRPFYPAVEGTLCLTGHHLILSSRQDNTEELWLLHSNIDAIDKRFVGSLGTIIIKCKDFRIIQLDIPGMEECLNIASSIEALSTLDSITLMYPFFYRPMFEVIEDGWHSFLPEQEFELYSSATSEWRLSYVNKEFAVCPSYPPIVTVPKSIDDEALRKVATFRHGGRFPVLSYYHKKNGMVIMRSGQPLTGTNGRRCKEDEKLINATLRAGKRGYIIDTRSLNVAQQTRAKGGGFEQEAHYPQWRRIHKSIERYHILQESLIKLVEACNDQTHNMDRWLSKLEASNWLTHIKEILTTACLAAQCIDREGASILIHGTEGTDSTLQVTSLAQIILEPRSRTIRGFEALIEREWLQAGHPFQQRCAQSAYCNTKQKWEAPVFLLFLDCVWQILRQFPCSFEFNENFLIMLFEHAYASQFGTFLGNNESERCKLKLQQKTMSLWSWVNQPSELSKFTNPLFEANNLVIWPSVAPQSLPLWEGIFLRWNRSSKYLDEAYEEMVNIIEYNKELQAKVNILRRQLAELETEDGMQESP
# partner: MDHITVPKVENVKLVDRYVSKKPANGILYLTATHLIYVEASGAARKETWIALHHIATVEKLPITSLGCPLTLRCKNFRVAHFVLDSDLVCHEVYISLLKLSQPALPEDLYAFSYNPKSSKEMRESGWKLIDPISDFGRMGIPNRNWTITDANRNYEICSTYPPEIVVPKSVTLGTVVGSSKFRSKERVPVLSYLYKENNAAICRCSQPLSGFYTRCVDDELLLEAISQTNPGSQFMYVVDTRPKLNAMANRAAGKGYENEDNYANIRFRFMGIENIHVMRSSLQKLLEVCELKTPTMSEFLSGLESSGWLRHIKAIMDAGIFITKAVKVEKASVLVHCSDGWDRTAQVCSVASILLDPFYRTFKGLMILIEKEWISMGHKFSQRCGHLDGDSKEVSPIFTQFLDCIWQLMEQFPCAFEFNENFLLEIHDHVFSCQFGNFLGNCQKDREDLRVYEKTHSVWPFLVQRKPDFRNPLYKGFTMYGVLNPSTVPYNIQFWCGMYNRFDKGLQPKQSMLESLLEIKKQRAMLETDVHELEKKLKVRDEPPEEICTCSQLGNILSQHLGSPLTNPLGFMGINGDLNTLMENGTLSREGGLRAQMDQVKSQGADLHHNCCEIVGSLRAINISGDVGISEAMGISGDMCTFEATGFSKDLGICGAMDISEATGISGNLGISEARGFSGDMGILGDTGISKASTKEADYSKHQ
# B3: N-acetyltransferase 8 (Homo sapiens), Q9UHE5 (parent)
# chain: MAPCHIRKYQESDRQWVVGLLSRGMAEHAPATFRQLLKLPRTLILLLGGPLALLLVSGSWLLALVFSISLFPALWFLAKKPWTEYVDMTLCTDMSDITKSYLSERGSCFWVAESEEKVVGMVGALPVDDPTLREKRLQLFHLFVDSEHRRQGIAKALVRTVLQFARDQGYSEVILDTGTIQLSAMALYQSMGFKKTGQSFFCVWARLVALHTVHFIYHLPSSKVGSL
# partner: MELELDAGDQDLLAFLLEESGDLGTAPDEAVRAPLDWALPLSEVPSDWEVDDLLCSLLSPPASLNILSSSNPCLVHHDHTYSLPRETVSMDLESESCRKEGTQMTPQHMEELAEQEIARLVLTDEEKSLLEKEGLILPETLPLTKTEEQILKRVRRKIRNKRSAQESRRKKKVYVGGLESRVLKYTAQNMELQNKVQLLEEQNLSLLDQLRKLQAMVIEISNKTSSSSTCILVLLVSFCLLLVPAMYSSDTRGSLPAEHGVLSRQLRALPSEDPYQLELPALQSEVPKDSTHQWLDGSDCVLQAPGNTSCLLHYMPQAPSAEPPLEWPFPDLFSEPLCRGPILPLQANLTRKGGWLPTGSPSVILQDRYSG
# B4: Microtubule-associated tumor suppressor candidate 2 (Homo sapiens), Q5JR59-3 (parent)
# chain: MGHCCCKPYNCLQCLDKTNESALVKEKELSIELANIRDEVAFHTAKCEKLQKEKEELERRFEDEVKRLGWQQQAELQELEERLQLQFEAEMARLQEEHGDQLLSIRCQHQEQVEDLTASHDAALLEMENNHTVAITILQDDHDHKVQELMSTHELEKKELEENFEKLRLSLQDQVDTLTFQSQSLRDRARRFEEALRKNTEEQLEIALAPYQHLEEDMKSLKQVLEMKNQQIHEQEKKILELEKLAEKNIILEEKIQVLQQQNEDLKARIDQNTVVTRQLSEENANLQEYVEKETQEKKRLSRTNEELLWKLQTGDPTSPIKLSPTSPVYRGSSSGPSSPARVSTTPR
# partner: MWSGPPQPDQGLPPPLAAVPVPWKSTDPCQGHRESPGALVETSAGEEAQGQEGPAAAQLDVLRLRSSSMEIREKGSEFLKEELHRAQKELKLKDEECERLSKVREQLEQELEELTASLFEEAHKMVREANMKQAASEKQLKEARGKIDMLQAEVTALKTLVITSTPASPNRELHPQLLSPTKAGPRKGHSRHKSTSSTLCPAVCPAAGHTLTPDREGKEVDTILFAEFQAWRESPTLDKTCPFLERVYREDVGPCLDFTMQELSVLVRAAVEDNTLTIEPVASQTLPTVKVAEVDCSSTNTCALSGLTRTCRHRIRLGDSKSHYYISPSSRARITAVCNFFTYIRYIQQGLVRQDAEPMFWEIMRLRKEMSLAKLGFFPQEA
# B5: WD repeat domain-containing protein 83 (Homo sapiens), Q9BRX9 (parent)
# chain: MAFPEPKPRPPELPQKRLKTLDCGQGAVRAVRFNVDGNYCLTCGSDKTLKLWNPLRGTLLRTYSGHGYEVLDAAGSFDNSSLCSGGGDKAVVLWDVASGQVVRKFRGHAGKVNTVQFNEEATVILSGSIDSSIRCWDCRSRRPEPVQTLDEARDGVSSVKVSDHEILAGSVDGRVRRYDLRMGQLFSDYVGSPITCTCFSRDGQCTLVSSLDSTLRLLDKDTGELLGEYKGHKNQEYKLDCCLSERDTHVVSCSEDGKVFFWDLVEGALALALPVGSGVVQSLAYHPTEPCLLTAMGGSVQCWREEAYEAEDGAG
# B6: Macrophage scavenger receptor types I and II (Homo sapiens), P21757 (parent)
# chain: MEQWDHFHNQQEDTDSCSESVKFDARSMTALLPPNPKNSPSLQEKLKSFKAALIALYLLVFAVLIPLIGIVAAQLLKWETKNCSVSSTNANDITQSLTGKGNDSEEEMRFQEVFMEHMSNMEKRIQHILDMEANLMDTEHFQNFSMTTDQRFNDILLQLSTLFSSVQGHGNAIDEISKSLISLNTTLLDLQLNIENLNGKIQENTFKQQEEISKLEERVYNVSAEIMAMKEEQVHLEQEIKGEVKVLNNITNDLRLKDWEHSQTLRNITLIQGPPGPPGEKGDRGPTGESGPRGFPGPIGPPGLKGDRGAIGFPGSRGLPGYAGRPGNSGPKGQKGEKGSGNTLTPFTKVRLVGGSGPHEGRVEILHSGQWGTICDDRWEVRVGQVVCRSLGYPGVQAVHKAAHFGQGTGPIWLNEVFCFGRESSIEECKIRQWGTRACSHSEDAGVTCTL
# Variants of: B1
# Settings: with tle5_human TLE5, Q08117
row,Variant,effect of a mutation on the interaction
1,R173H,with no effect

# Variants of: B2
# Settings: with mtmr8_human MTMR8, Q96EF0
row,Variant,effect of a mutation on the interaction
1,F127I,with no effect

# Variants of: B2
# Settings: with mtmr8_human MTMR8, Q96EF0
# Remark: another data set of the same source
row,Variant,effect of a mutation on the interaction
1,S126C,with no effect

# Variants of: B3
# Settings: with creb3_human CREB3, O43889
row,Variant,effect of a mutation on the interaction
1,F143S,with no effect

# Variants of: B4
# Settings: with RAB3IL1, Q8TBN0
row,Variant,effect of a mutation on the interaction
1,A89V,with no effect

# Variants of: B5
# Settings: with keap1_human KEAP1, Q14145
# keap1_human KEAP1, Q14145, sequence (Q14145 whole entry): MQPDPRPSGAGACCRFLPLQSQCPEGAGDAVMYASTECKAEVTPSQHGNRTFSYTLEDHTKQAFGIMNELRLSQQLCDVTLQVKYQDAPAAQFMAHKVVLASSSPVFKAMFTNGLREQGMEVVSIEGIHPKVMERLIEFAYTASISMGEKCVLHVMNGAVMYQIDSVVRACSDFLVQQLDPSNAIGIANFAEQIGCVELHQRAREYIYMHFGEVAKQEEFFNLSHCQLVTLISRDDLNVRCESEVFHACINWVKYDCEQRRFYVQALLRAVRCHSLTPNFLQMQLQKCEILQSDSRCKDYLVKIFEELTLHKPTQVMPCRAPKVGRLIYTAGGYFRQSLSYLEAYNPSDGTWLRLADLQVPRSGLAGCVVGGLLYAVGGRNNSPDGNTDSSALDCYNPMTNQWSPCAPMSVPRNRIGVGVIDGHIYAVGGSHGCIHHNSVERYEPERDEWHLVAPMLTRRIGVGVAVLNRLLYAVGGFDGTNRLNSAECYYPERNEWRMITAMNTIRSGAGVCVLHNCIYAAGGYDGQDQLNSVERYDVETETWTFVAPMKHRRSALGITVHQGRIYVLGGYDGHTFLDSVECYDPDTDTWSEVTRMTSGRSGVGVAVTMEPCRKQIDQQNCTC
row,Variant,effect of a mutation on the interaction
1,G278S,with no effect
2,E144Q,with no effect

# Variants of: B6
# Settings: with sc22a_human SEC22A
row,Variant,effect of a mutation on the interaction
1,P275A,with no effect
2,P346L,with no effect
3,V113A,with no effect

# Variants of: B6
# Settings: with lerl1_human LEPROTL1, O95214
# lerl1_human LEPROTL1, O95214, sequence (O95214 whole entry): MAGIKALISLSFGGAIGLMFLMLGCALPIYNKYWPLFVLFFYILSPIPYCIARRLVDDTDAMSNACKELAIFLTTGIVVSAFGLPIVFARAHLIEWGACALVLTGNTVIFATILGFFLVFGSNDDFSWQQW
row,Variant,effect of a mutation on the interaction
1,P286T,with no effect
